Measurements published in publication PMC10115451 (eLife, 2023).

Tests used:
[1] = biological target: T1, ANDV Gn/Gc (Andes virus glycoproteins from the full-length M segment, on the cell surface) (Andes virus, GenBank AF291703.2 …, UniProt Q9E006); experiment: flow cytometry on cells; conditions: one partner purified
T1 construct: source: Expi293F cells, transfected, on the cell surface

[2] = biological target: T2, ANDV Gc (Andes virus Gc ectodomain) (Andes virus, NP_604472.1 (Chile-9717869), UniProt Q9E006); experiment: ELISA; conditions: both partners purified
T2 construct: source: Drosophila S2 cells, purified
T2 sequence (Q9E006 652-1107): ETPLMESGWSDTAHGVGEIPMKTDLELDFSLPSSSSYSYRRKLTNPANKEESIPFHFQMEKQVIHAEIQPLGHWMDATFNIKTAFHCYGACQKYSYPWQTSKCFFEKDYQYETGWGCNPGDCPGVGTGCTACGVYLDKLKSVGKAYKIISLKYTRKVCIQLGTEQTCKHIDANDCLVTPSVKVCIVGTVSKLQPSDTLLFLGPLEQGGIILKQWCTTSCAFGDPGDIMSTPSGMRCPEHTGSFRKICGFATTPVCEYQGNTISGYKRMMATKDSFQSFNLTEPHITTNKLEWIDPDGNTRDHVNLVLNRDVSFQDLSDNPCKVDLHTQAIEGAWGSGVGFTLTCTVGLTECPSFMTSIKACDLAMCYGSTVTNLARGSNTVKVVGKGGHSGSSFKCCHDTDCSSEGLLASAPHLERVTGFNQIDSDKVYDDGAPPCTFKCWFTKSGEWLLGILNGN

[3] = biological target: MAPV Gn^H/Gc (linked Maporal virus Gn head domain and Gc ectodomain) (Maporal virus, strain HV-97021050, UniProt Q5MYC0); experiment: ELISA; conditions: both partners purified
[4] = biological target: T3, ANDV Gn^B (Andes virus Gn base domain) (Andes virus, NP_604472.1 (Chile-9717869), UniProt Q9E006); experiment: ELISA; conditions: both partners purified
T3 construct: source: Drosophila S2 cells, purified
T3 sequence (Q9E006 375-484): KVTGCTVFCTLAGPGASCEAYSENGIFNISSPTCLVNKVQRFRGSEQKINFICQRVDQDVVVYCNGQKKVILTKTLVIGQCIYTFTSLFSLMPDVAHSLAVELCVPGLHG

T1 sequence (Q9E006 whole entry, looked up): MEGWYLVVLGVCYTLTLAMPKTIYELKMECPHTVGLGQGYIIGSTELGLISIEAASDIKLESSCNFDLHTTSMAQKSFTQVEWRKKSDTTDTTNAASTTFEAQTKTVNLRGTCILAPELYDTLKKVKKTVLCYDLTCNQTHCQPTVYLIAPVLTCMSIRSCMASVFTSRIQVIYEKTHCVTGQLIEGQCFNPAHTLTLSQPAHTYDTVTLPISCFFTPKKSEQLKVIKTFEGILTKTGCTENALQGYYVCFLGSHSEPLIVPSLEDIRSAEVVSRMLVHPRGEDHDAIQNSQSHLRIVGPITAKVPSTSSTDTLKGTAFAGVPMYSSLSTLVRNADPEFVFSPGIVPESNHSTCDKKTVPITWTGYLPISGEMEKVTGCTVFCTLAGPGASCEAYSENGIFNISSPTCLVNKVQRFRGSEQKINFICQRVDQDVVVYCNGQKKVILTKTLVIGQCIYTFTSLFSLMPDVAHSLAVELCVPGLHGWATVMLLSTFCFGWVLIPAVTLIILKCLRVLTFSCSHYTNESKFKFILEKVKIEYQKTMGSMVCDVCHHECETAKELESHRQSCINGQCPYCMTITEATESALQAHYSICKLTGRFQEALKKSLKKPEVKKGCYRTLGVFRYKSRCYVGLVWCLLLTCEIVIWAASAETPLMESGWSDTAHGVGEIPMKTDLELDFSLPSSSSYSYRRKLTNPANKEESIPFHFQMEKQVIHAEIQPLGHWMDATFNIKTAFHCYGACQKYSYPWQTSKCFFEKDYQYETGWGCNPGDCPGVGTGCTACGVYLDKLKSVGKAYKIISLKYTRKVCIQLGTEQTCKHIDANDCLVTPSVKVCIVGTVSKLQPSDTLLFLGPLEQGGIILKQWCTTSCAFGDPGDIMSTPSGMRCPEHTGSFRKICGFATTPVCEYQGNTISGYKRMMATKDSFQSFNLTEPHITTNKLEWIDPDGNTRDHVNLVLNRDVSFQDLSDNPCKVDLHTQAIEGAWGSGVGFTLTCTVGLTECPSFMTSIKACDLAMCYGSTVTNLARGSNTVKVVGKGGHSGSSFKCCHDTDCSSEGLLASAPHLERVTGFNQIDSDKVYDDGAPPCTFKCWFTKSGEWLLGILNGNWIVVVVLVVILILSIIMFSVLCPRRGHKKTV

Row | Binder | binding result [1] | binding result [2] | binding result [3] | binding result [4]
1 | ANDV-34 (human monoclonal antibody, IgG1) (antibody, V domains shown, also called rANDV-34; source: ExpiCHO cells, transiently transfected, purified (HiTrap MabSelectSure); copies: 2 + 2) VH: QVHLVQSGGELRKPGSSVKVSCKASGGTFSSFAITWLRQAPGQGLEWVGAYIPVFGSAIHGQKVHGRVTLTADESTTTAYMELSSLRSEDTAVYFCARGPTQNWEYSYYTYFESWGQGTLVTVSS VL: QIVLTQSPGTLSLSPGERATLSCRASQSVTSRYLAWYQQKPGQAPRLLIYDTSSRATGIPDRFSGSGSETDFTLTISRLAPEDFAVYYCQQYGTSPAVTFGQGTRLEIK | binds | no binding | no binding | no binding
2 | ANDV-5 (human monoclonal antibody, IgG1) (antibody, V domains shown, also called rANDV-5; ANDV-5 IgG; source: ExpiCHO cells, transiently transfected, purified (HiTrap MabSelectSure); copies: 2 + 2) VH: QVQLLQSGAEVKKPGSSVRVSCQSSGDIYNYYGISWVRQAPGQGLEWMGGIIPVYGRPNYVQKFRGRVTFTVDKSTSTAYMELSTLRADDTAVYYCARDTARSHYFGSGNDYGMDVWGQGTTVIVSS VL: DIVMTQSPLSLPVTPGEPASISCRSSQSLLHSNGFNFVDWYLQKPGQSPQLLIYLGSTRASGVPDRFSGSGSGTDFTLEISRVEAEDVGVYYCMQALQFPRTFGQGTKLDIK | binds | no binding | binds | no binding
3 | ANDV-5 Fab (Fab, V domains shown, also called Fab ANDV-5; Fab form of ANDV-5; source: ExpiCHO cells, transiently transfected, purified (CaptureSelect CH1-XL)) VH: QVQLLQSGAEVKKPGSSVRVSCQSSGDIYNYYGISWVRQAPGQGLEWMGGIIPVYGRPNYVQKFRGRVTFTVDKSTSTAYMELSTLRADDTAVYYCARDTARSHYFGSGNDYGMDVWGQGTTVIVSS VL: DIVMTQSPLSLPVTPGEPASISCRSSQSLLHSNGFNFVDWYLQKPGQSPQLLIYLGSTRASGVPDRFSGSGSGTDFTLEISRVEAEDVGVYYCMQALQFPRTFGQGTKLDIK | binds | – | – | –
